Experimental data from patent publication US20190382488A1 (IMAGINAB, published 2019).

B1: IAb_Mb1b_CD8 (other)
chain: DVQITQSPSSLSASVGDRVTITCRTSRSISQYLAWYQQKPGKVPKLLIYSGSTLQSGVPSRFSGSGSGTDFTLTISSLQPEDVATYYCQQHNENPLTFGGGTKVEIKGSTSGGGSGGGSGGGGSSEVQLVESGGGLVQPGGSLRLSCAASGFNIKDTYIHFVRQAPGKGLEWIGRIDPANDNTLYASKFQGKATISADTSKNTAYLQMNSLRAEDTAVYYCGRGYGYYVFDHWGQGTLVTVSSEPKSCDKTHTCPPCGGGSSGGGSGGQPREPQVYTLPPSRDELTKNQVSLTCLVKGFYPSDIAVEWESNGQPENNYKTTPPVLDSDGSFFLYSKLTVDKSRWQQGNVFSCSVMHEALHNHYTQKSLSLSPGK
notes: also called IAb M1b CD8
B2: IAb_M1b_CD8-Df (other)
chain: B1 chain
modifications: Desferoxamine (Df) conjugated to lysine residues
notes: also called Df-labeled minibody
B3: IAb_Mb1c_CD8 (other)
chain: DVQITQSPSSLSASVGDRVTITCRTSRSISQYLAWYQQKPGKVPKLLIYSGSTLQSGVPSRFSGSGSGTDFTLTISSLQPEDVATYYCQQHNENPLTFGGGTKVEIKGSTSGGGSGGGSGGGGSSQVQLVQSGAEVKKPGATVKISCKVSGFNIKDTYIHFVQQAPGKGLEWIGRIDPANDNTLYASKFQGKATITADTSTDTAYMELSSLRSGDTAVYYCGRGYGYYVFDHWGQGTLVTVSSEPKSCDKTHTCPPCGGGSSGGGSGGQPREPQVYTLPPSRDELTKNQVSLTCLVKGFYPSDIAVEWESNGQPENNYKTTPPVLDSDGSFFLYSKLTVDKSRWQQGNVFSCSVMHEALHNHYTQKSLSLSPGK
notes: also called variant 1c
B4: OKT8 mAb (antibody, V domains shown)
VH: EVQLQQSGAELVKPGASVKLSCTASGFNIKDTYIHFVRQRPEQGLEWIGRIDPANDNTLYASKFQGKATITADTSSNTAYMHLCSLTSGDTAVYYCGRGYGYYVFDHWGQGTTLTVSS
VL: DVQINQSPSFLAASPGETITINCRTSRSISQYLAWYQEKPGKTNKLLIYSGSTLQSGIPSRFSGSGSGTDFTLTISGLEPEDFAMYYCQQHNENPLTFGAGTKLELK
notes: Parental murine monoclonal antibody (detected with anti-mouse IgG Fc); also called parental OKT8 antibody; parental OKT8
B5: IAb_Mb2b_CD8 (other)
chain: EVQLVESGGGLVQPGGSLRLSCAASGFNIKDTYIHFVRQAPGKGLEWIGRIDPANDNTLYASKFQGKATISADTSKNTAYLQMNSLRAEDTAVYYCGRGYGYYVFDHWGQGTLVTVSSGSTSGGGSGGGSGGGGSSDVQITQSPSSLSASVGDRVTITCRTSRSISQYLAWYQQKPGKVPKLLIYSGSTLQSGVPSRFSGSGSGTDFTLTISSLQPEDVATYYCQQHNENPLTFGGGTKVEIKEPKSCDKTHTCPPCGGGSSGGGSGGQPREPQVYTLPPSRDELTKNQVSLTCLVKGFYPSDIAVEWESNGQPENNYKTTPPVLDSDGSFFLYSKLTVDKSRWQQGNVFSCSVMHEALHNHYTQKSLSLSPGK
notes: also called IAb M2b CD8

Assays:
[1] = target: T1, recombinant human CD8 (rhCD8) (human, UniProt P01732 22-182); test: SPR (summary table)
T1 construct: Soluble purified recombinant protein; also called purified recombinant human CD8 protein; soluble CD8
T1 sequence (P01732 22-182 limits assumed): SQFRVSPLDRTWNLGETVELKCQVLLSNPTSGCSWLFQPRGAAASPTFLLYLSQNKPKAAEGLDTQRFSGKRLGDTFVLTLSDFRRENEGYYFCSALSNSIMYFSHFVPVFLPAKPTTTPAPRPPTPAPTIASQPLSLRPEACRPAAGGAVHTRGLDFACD
From the text: (§1) Surface plasma resonance (SPR) was used to determine the binding affinity for all the IAb_Mb_CD8 variants to recombinant human CD8 (Table 8.0). The minibody protein in the supernatant was captured on to the BIAcore chip using an anti-human IgG (Fc-specific) antibody. The amount of minibody captured on the chip was normalized to enable a direct comparison of binding affinity between the variants as a kinetic “scouting” experiment to rank affinities. The rhCD8 protein was passed over the captured minibody protein to measure binding.
(§2) Table 8.0 summarizes the measured association (ka), dissociation (kd), and kD constants for the IAb_Mb_CD8 variants binding to recombinant hCD8. The variants were captured on a BIAcore chip using anti-human Fc-specific IgG antibody.

cell-surface human CD8 [2] = target: T2, cell-surface human CD8 (human, UniProt P01732 22-235); test: flow cytometry, HPB-ALL cells
T2 construct: the cell is named under assay; also called cellular human CD8; CD8 on PC3-CD8 cells
T2 sequence (P01732 22-235 limits assumed): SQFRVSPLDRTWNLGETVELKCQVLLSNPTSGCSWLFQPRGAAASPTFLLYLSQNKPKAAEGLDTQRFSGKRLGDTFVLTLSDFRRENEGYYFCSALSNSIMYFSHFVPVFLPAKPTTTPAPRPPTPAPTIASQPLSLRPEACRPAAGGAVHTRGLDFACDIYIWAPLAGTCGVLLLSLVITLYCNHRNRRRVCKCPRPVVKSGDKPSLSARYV
Method: (§3) Flow cytometry analysis of minibodies binding to cell-surface human CD8 on HPB-ALL cells was performed. Cells were stained with respective concentrations of minibody, washed, and then stained with a secondary anti-human IgG (Fc-specific) APC-conjugated antibody. Analysis was performed with 10,000 events/point in triplicate for each concentration. The results are shown in graph format in FIG. 29A. The graph presents the normalized mean fluorescence intensity (MFI) vs. the log of the concentration (nM). Error bars represent the standard error. The data indicates an EC₅₀ of 0.15 nM and 0.19 nM.
as §3, with “analysis of IgG2 minibodies binding” for “analysis of minibodies binding”, “in FIG. 29E. The graph” for “in FIG. 29A. The graph”, “EC₅₀ of 0.1 nM, 0.13 nM, and 0.08” for “EC₅₀ of 0.15 nM and 0.19”, “nM, and 0.08 nM.” for “nM and 0.19 nM.”

cell-surface human CD8 [3] = target: T2, cell-surface human CD8; test: flow cytometry, primary human CD8+ T cells
Method: as §3, with “primary human CD8+ T” for “HPB-ALL”, “29B.” for “29A.”, “0.1” for “0.15”, “0.26” for “0.19”

cell-surface human CD8 [4] = target: T2, cell-surface human CD8; test: flow cytometry, PC3 cells overexpressing CD8
cell-surface human CD8 [5] = target: T2, cell-surface human CD8; test: flow cytometry on HPB-ALL cells, anti-human IgG (Fc-specific)-APC
Method: as §3

cell-surface human CD8 [6] = target: T2, cell-surface human CD8; test: as above; remark: listed apart in the source
cell-surface human CD8 [7] = target: T2, cell-surface human CD8; test: as above; remark: listed apart in the source
Method: as §3, with “analysis of IgG2 minibodies binding” for “analysis of minibodies binding”, “in FIG. 29E. The graph” for “in FIG. 29A. The graph”, “EC₅₀ of 0.1 nM, 0.13 nM, and 0.08” for “EC₅₀ of 0.15 nM and 0.19”, “nM, and 0.08 nM.” for “nM and 0.19 nM.”

[8] = target: T1, recombinant human CD8 (rhCD8); test: SPR (BIAcore), minibody captured via anti-human IgG Fc, hCD8 analyte at 50 nM
From the text: as §1, §2

cell-surface human CD8 [9] = target: T2, cell-surface human CD8; test: flow cytometry on primary human CD8+ T cells, anti-human IgG (Fc-specific)-APC
Method: as §3, with “primary human CD8+ T” for “HPB-ALL”, “29B.” for “29A.”, “0.1” for “0.15”, “0.26” for “0.19”

cell-surface human CD8 [10] = target: T2, cell-surface human CD8; test: flow cytometry on PC3 cells overexpressing CD8, anti-human IgG (Fc-specific)-APC
Method: Flow cytometry analysis of minibody (+/−lysine conjugation to Desferoxamine) binding to PC3 cells overexpressing CD8 was performed. Cells were stained with respective concentrations of minibody, washed, and then stained with a secondary anti-human IgG (Fc-specific) APC-conjugated antibody. Analysis was performed with 10,000 events/point in triplicate for each concentration. The results are shown in graph format in FIG. 29D. The graph presents the mean fluorescence intensity (MFI) vs. the log of the concentration (nM). Error bars represent the standard error. The data indicates an EC₅₀ of 0.64 nM and 0.83 nM.

[11] = target: T1, recombinant human CD8 (rhCD8); test: ELISA on plate-coated rhCD8, transfection supernatant, HRP goat anti-human IgG (Fc-specific), TMB, absorbance 405 nm
Method: 96 well plates were coated with rhCD8 antigen and incubated with supernatants obtained from the transient transfection. Binding was detected with HRP-conjugated goat anti-human (Fc-specific) IgG and TMB substrate. The absorbance measured at 405 nm. Dilutions were done in triplicate. Data is shown as mean of relative absorbance.

cell-surface human CD8 [12] = target: T2, cell-surface human CD8; test: flow cytometry, HPB-ALL cells; remark: listed apart in the source
Method: as §3, with “the OKT8 mAbconstruct” for “minibodies”, “antibody,” for “minibody,”, “anti-mouse” for “anti-human”, “28.” for “29A.”, “the” for “the normalized”, “0.22” for “0.15 nM and 0.19”

cell-surface human CD8 [13] = target: T2, cell-surface human CD8; test: flow cytometry, HPB-ALL cells; Table 9 summary, HPB-ALL cells
Method: as §3, with “the OKT8 mAbconstruct” for “minibodies”, “antibody,” for “minibody,”, “anti-mouse” for “anti-human”, “28.” for “29A.”, “the” for “the normalized”, “0.22” for “0.15 nM and 0.19”

[14] = target: T1, recombinant human CD8 (rhCD8); test: SPR (BIAcore), antibody as captured ligand, hCD8 analyte at 50 nM
cell-surface human CD8 [15] = target: T2, cell-surface human CD8; test: flow cytometry on HPB-ALL cells, anti-mouse IgG (Fc-specific)-APC
Method: as §3, with “the OKT8 mAbconstruct” for “minibodies”, “antibody,” for “minibody,”, “anti-mouse” for “anti-human”, “28.” for “29A.”, “the” for “the normalized”, “0.22” for “0.15 nM and 0.19”

[16] = target: T1, recombinant human CD8 (rhCD8); test: SPR (summary table); Table 9 summary

Row | Binder | Kd [1] | EC50 (cell-surface human CD8 [2]) | EC50 (cell-surface human CD8 [3]) | EC50 (cell-surface human CD8 [5]) | EC50 (cell-surface human CD8 [6]) | Ka [8] | Kd [8] | koff [8] | kon [8] | EC50 (cell-surface human CD8 [9]) | EC50 (read off the curve) (cell-surface human CD8 [9]) | EC50 (cell-surface human CD8 [10]) | EC50 (read off the curve) (cell-surface human CD8 [10]) | also measured
1 | B1 | 1900 pM | 100 pM | 100 pM | 150 pM | 130 pM | 5.4e+08 M⁻¹ | 1900 pM | 0.0012 s⁻¹ | 640000 M⁻¹ s⁻¹ | 100 pM | ~100 pM | 640 pM | ~700 pM | EC50 (cell-surface human CD8 [4]): 600 pM; EC50 (cell-surface human CD8 [7]): 100 pM
2 | B2 |  |  |  |  | 120 pM |  |  |  |  |  |  | 830 pM | ~900 pM | 
3 | B3 |  |  |  |  |  | 4e+08 M⁻¹ | 2500 pM | 0.0018 s⁻¹ | 700000 M⁻¹ s⁻¹ |  |  |  |  | EC50 (read off the curve) [11]: ~0.02 µg/mL
4 | B4 | 1800 pM |  |  |  |  |  |  |  |  |  |  |  |  | EC50 (cell-surface human CD8 [12]): 220 pM; EC50 (cell-surface human CD8 [13]): 330 pM; Ka [14]: 5.5e+08 M⁻¹; Kd [14]: 1800 pM; koff [14]: 0.001 s⁻¹; kon [14]: 560000 M⁻¹ s⁻¹; EC50 (cell-surface human CD8 [15]): 330 pM; EC50 (read off the curve) (cell-surface human CD8 [15]): ~300 pM
5 | B5 |  | 190 pM | 260 pM | 190 pM |  | 2.6e+08 M⁻¹ | 3900 pM | 0.0021 s⁻¹ | 540000 M⁻¹ s⁻¹ | 260 pM | ~300 pM |  |  | Kd [16]: 3600 pM
